Measurements: patent US20060165684A1 (published 2006)

T1: peptide 6 (TIRC7 derived peptide)
T1 construct: also called Peptid6; Vol 6
T1 peptide: DLPDASVNGWSSDE

B1: chimeric Neliximab (antibody, V domains shown)
VH: EVQLQQSGPELVKPGASVKMSCKASGYTFTTYVMHWVKQKPGQGLEWIGYINPYNDGTNYNEKFKGKATLTSDKSSSTAYMELSTLTSEDSAVYYCAEFITKTVGGSNWYLDVWGAGTTVTVSS
VL: QIVLTQSPAIMSASPGEKVTMTCSASSSISYIHWFQQKPGTSPKRWIYDTSKLPSGVPARFSGSGSGTSYSLTISSMEAEDAATYYCHQRSSYTWTFGGGTKLEIKR
notes: Murine VH and VL joined to human gamma 1 (pConGamma1f vector) and human kappa (pConKappa vector) constant regions, made in NSO or CHO cells; also called chimeric antibody of clone 17-1; chimerized #17
B2: murine Neliximab (antibody, V domains shown)
VH: EVQLQQSGPELVKPGASVKMSCKASGYTFTTYVMHWVKQKPGQGLEWIGYINPYNDGTNYNEKFKGKATLTSDKSSSTAYMELSTLTSEDSAVYYCAEFITKTVGGSNWYLDVWGAGTTVTVSS
VL: QIVLTQSPAIMSASPGEKVTMTCSASSSISYIHWFQQKPGTSPKRWIYDTSKLPSGVPARFSGSGSGTSYSLTISSMEAEDAATYYCHQRSSYTWTFGGGTKLEIKR
notes: also called #17; Clone 17
B3: murine Metiliximab (antibody, V domains shown)
VH: EVQLQQSGPELVKPGASVKMSCKASGYTFTSYVIHWVKQKPGQGLEWIGYINPYNYDTKYNEKFKGEATLTSDKSSNTAYMELSSLTSEDSAVYYCAGFFTRAVGGSYWYLDVWGAGTTVTVSS
VL: QIVLTQSPAIMSASPGEKVTMTCSASSSISYIHWFQQKPGTSPKRWIYDTSKLVSGVPARFSGSGSGTSYSLTISNMEAADAATYYCHQRSASTWTFGGGTKLEIKR
notes: also called #9; Clone 9

Target: T1, peptide 6 (TIRC7 derived peptide)
Experiment: solution equilibrium titration with peptide, free antibody by ELISA (method of Friquet et al 1985), Klotz plot

Binder	Kd [nM]
B1	1
B2	1
B3	0.5
